Patent US20240167005A1, “MODIFIED SHIGELLA APYRASE AND USES THEREOF” (APIRAYS BIOSCIENCES AB, priority 2021, published 2024)
Substitutions are numbered along the chain they refer to. Numbers in names are those of the source.

Key:
[1] = tested on: O=[N+]([O-])c1ccc(OP(=O)(O)O)cc1; experiment: pNPP dephosphorylation (Example 3), mutant; format: biochemical, Shigella flexneri; settings: other: mutant of Example 1, 50 mM Tris, pH 7.5, 37° C., 15 min, 2 μg enzyme
Method: In order to improve the activity of apyrase and its tolerance to high salt conditions, the inventors mutated the apyrase gene randomly using an error prone PCR method starting from the wild-type Shigella flexneri apyrase DNA sequence (SEQ ID NO: 4) as template. The method incorporates repeated copying of the template at high MgCl2 concentration (5 mM) with Taq polymerase. After every fourth cycle, one fifth of the reaction mixture was transferred to fresh PCR tube and the same process was repeated 22 times to obtain a product that will have randomly mutated nucleotides which can be identified by sequencing. The mutated gene was cloned in pET21a vector. The mutated DNA sequence obtained is presented as SEQ ID NO: 2, containing a total of 31 mutations leading to amino-acid changes (see SEQ ID NO:3 compared to the wild-type amino-acid sequence of SEQ ID NO: 1).
(§1) Products: para Nitro phenol (PNP, yellow colour, absorbance at 405 nm) and phosphate • pNPP+Apyrase→PNP+Pi
To further study the capability of the mutant enzyme to hydrolyse pNPP, the substrate (pNPP) was titrated and incubated with the mutant apyrase. […]
The enzymes (2 μg) were incubated with different concentrations of pNPP (dissolved in 50 mM Tris, pH 7.5) in a 100 μL reaction mixture. […] These were incubated at 37° C. for 15 minutes and absorbance was taken at 405 nm.

[2] = tested on: O=[N+]([O-])c1ccc(OP(=O)(O)O)cc1; experiment: Affinity towards pNPP, L66V; format: biochemical, Shigella flexneri; settings: other: L66V, 50 mM Tris-HCl pH 7.5, 37° C., 20 min, 500 ng enzyme
Excerpt: However, not all reactions successfully generated PCR products by agarose gel electrophoresis. The successful mutations were transformed into the expression host and proteins were expressed and purified to homogeneity by affinity chromatography.
Other substrates like 2-Glycerophosphate, Pyridoxal phosphate and phenyl phosphate were not hydrolysed by the mutants (Table 2 and FIG. 8A-B).
(§2) The formation of product. Para-nitro phenol was monitored colorimetrically at 405 nm using multi-mode spectrophotometer (Biotek instruments).
(§3) Respective colorimetric/fluorescence assays (mentioned above).

[3] = tested on: Cc1ncc(C[n+]2csc(CCO[P@](=O)(O)OP(=O)(O)O)c2C)c(N)n1; experiment: purified protein, by the assay type; settings: other: L66V, TPP, 50 mM Tris-HCl pH 7.5, 37° C., 20 min, 500 ng enzyme
Method: The kinetic curves were plotted and the Michaelis Menten constant (Km) was calculated using GraphPad Prism 5.0 software.

[4] = tested on: EIEC apyrase variant H116L; experiment: Affinity of pNPP to EIEC H116L (Table 6); format: biochemical
Excerpt: as §2, §3

[5] = biological target: T1, wild-type Shigella flexneri apyrase, SEQ ID NO: 1 (Shigella flexneri, UniProt Q59909); experiment: pNPP dephosphorylation (Example 3), wild type; format: biochemical; settings: 50 mM Tris, pH 7.5, 37° C., 15 min, 2 μg enzyme
T1 sequence (Q59909 26-246): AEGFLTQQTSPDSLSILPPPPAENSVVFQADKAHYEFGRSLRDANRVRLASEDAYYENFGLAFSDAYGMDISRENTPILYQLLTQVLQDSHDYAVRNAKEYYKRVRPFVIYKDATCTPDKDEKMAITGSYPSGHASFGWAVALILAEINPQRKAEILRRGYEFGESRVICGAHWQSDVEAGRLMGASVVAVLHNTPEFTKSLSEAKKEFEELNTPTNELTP
Method: as §1
(§4) To further study the capability of the mutant enzyme to hydrolyse pNPP, the substrate (pNPP) was titrated and incubated with the mutant apyrase. As controls, alkaline phosphatase (known to hydrolyse pNPP) and the wildtype enzyme were also included.
(§5) The enzymes (2 μg) were incubated with different concentrations of pNPP (dissolved in 50 mM Tris, pH 7.5) in a 100 μL reaction mixture. For alkaline phosphatase, pNPP was dissolved in carbonate buffer (pH 10.3). Control reaction with pNPP lacking WT, mutant apyrase and alkaline phosphatase was also included. These were incubated at 37° C. for 15 minutes and absorbance was taken at 405 nm.

alkaline phosphatase = experiment: pNPP dephosphorylation (Example 3), alkaline phosphatase; format: biochemical; settings: carbonate buffer pH 10.3, 37° C., 15 min, 2 μg enzyme
Method: as §1, §4, §5

[6] = tested on: Nc1ncnc2c1ncn2[C@@H]1O[C@H](COP(=O)(O)OP(=O)(O)OP(=O)(O)O)[C@@H](O)[C@H]1O; experiment: Affinity of ATP to EIEC apyrase (Table 6); format: biochemical; settings: other: EIEC apyrase, pH 7.5, 37.0 °C
Excerpt: as §3

[7] = tested on: O=[N+]([O-])c1ccc(OP(=O)(O)O)cc1; experiment: Affinity of pNPP to EIEC apyrase (Table 6); format: biochemical; settings: other: EIEC apyrase, pH 7.5, 37.0 °C
Excerpt: as §2, §3

[8] = Whole cell ATP degradation activity assay (periplasmic samples, AMFAS); format: biochemical; settings: induced cells, lysozyme/EDTA, 37° C., 30 minutes
Method: As a crude assay for confirming expression of active enzyme, a whole cell ATP degradation activity assay was performed. 100 mM ATP was prepared in 50 mM Tris, pH 7.5. After dissolution, the pH was adjusted to 7.5 using NaOH. Pellets from 1 mL culture of induced cells were taken and washed twice with saline containing 1 mM Calcium chloride. The cells were treated with Lysozyme and EDTA to lyse the cell wall to release the periplasmic contents.
150 μL of 40 mM EDTA and 150 μL of 10 mM ATP was added to the pellet and mixed well, followed by incubation at 37° C. for 30 minutes.

[9] = pNPP dephosphorylation assay (Example 3); format: biochemical; settings: 2 μg enzyme, 3 mM pNPP, 50 mM Tris pH 7.5, 37° C., 15 minutes, FIG. 5
Method: Wild-type and mutant apyrase from Example 1 (2 μg each) were incubated with 3 mM pNPP (pNPP was dissolved in 50 mM Tris pH 7.5) in a 100 μL reaction mixture. Control reaction with pNPP lacking WT and mutant apyrase was also included. These were incubated at 37° C. for 15 minutes and absorbance was taken at 405 nm.
as §4, §5

[10] = ATP hydrolysis using purified recombinant apyrase (AMFAS, Example 2); format: biochemical
Method: A titrated series of ATP solutions from 100 mM to 0.01 mM in 50 mM Tris, pH 7.5 were prepared and incubated with 700 ng of Apyrase (mutant prepared in Example 1 and wild-type Shigella flexneri apyrase as control) for 30 minutes at 37° C. (100 μL reaction). After the incubation, 100 μL AMFAS reagent was added and OD was taken at 630 nm using multimode reader (Biotek instruments). The color formation is proportional to the amount of ATP degraded (dephosphorylated to ADP or AMP). […] Specific activity at 10 mM ATP was determined as 6.3 μmoles/min/mg for the mutant apyrase.

[11] = Bhargava et al. Current Science 1995; cited from earlier work
[12] = TPP assay / affinity (Examples 4-5); format: biochemical; settings: 5.0 mM TPP, 20 minutes, 37° C.; FIG. 8B, 9C
Method: A stock of freshly prepared TPP (50 mM) was prepared before performing every assay. […] Hydrolysis of Thiamine pyrophosphate (TPP) releases Thiamine, which forms a thiochrome fluorophore on addition of hydrogen peroxide and horse radish peroxidase (HRP) in alkaline conditions (NaOH-HRP-H2O2-1M NaOH, 5 U/mL HRP, 50 mM H2O2 mixed in a volumetric ratio of 3:1:1). Fluorescence was measured using multi-mode spectrophotometer (Biotek instruments) with excitation at 368 nm and emission at 450 nm.
as §3

[13] = pNPP assay / affinity (Examples 4-5); format: biochemical; settings: 2.0 mM pNPP, 20 minutes, 37° C.; FIG. 8A, 9B
Excerpt: as §2, §3

Molecule: Shigella flexneri apyrase, mutant apyrase of Example 1, SEQ ID NO: 3 (S50N, F54V, G63R, L66V, N70Q, E77V, A791, D90T, S97T, L108M, Q113N, V120R, K124R, Y127Q, P143R, 1151L, F162N, A167G, N174Q, K177R, L182F, G184A, W199Y, G206R, V213A, N219K, F223W, L227S, F234Y, T239Q, E243D) (Shigella flexneri; A167G/A79I/D90T/E243D/E77V/F162N/F223W/F234Y/F53V/G185A/G206R/G63R/I151L/K124R/K178R/L108M/L182F/L227S/L66V/N174Q/N219K/N70Q/P143R/Q113N/S50N/S97T/T239Q/V120R/V213A/W199Y/Y127Q)
- Km [1]: 2.1 mM

Molecule: Shigella flexneri apyrase (ApiOne, SEQ ID NO: 1) ApiTwo mutant L66V (Shigella flexneri; L66V)
- Km [2]: 0.76 mM
- Km [3]: 5.6 mM

Molecule: O=[N+]([O-])c1ccc(OP(=O)(O)O)cc1 [pNPP, para-Nitrophenylphosphate]
- Km [4]: 3.5 mM
- Km for pNPP [5]: Too low affinity
- Km (alkaline phosphatase): 8.4 mM

Molecule: EIEC apyrase (Escherichia coli)
- Km [6]: 0.021 mM
- Km [7]: 25.0 mM

B1: Mutant apyrase (protein)
chain: MKTKNFLLFCIATNMIFIPSANALKAEGFLTQQTSPDSLSILPPPPAENNVVVQADKAHYEFRRSVRDAQRVRLASVDIYYENFGLAFSTAYGMDITRENTPILYQLMTQVLNDSHDYARRNAREYQKRVRPFVIYKDATCTRDKDEKMALTGSYPSGHASNGWAVGLILAEIQPQRRAEIFRRAYEFGESRVICGAHYQSDVEARRLMGASAVAVLHKTPEWTKSSSEAKKEYEELNQPTNDLTPLEHHHHHH
modifications: Synthetic construct mutated variant
- ATP hydrolysis by periplasmic fraction [8]: can hydrolyse ATP similar to the WT apyrase
- pNPP hydrolysis ([9]; listed as mutant): has acquired the ability to hydrolyse pNPP
- pNPP hydrolysis ([9]; listed as mutant apyrase): considerable activity
- ATP degradation activity compared with wild-type ([10]; ATP 100 mM to 0.01 mM, 37° C., FIG. 4): indistinguishable from the wild-type enzyme
- Specific activity ([10]; at 10 mM ATP): 6.3 µmol/min/mg

B2: ApiOne: wild-type Shigella flexneri apyrase, SEQ ID NO: 1, termed ApiOne (protein, listed as Shigella flexneri)
chain: MKTKNFLLFCIATNMIFIPSANALKAEGFLTQQTSPDSLSILPPPPAENSVVFQADKAHYEFGRSLRDANRVRLASEDAYYENFGLAFSDAYGMDISRENTPILYQLLTQVLQDSHDYAVRNAKEYYKRVRPFVIYKDATCTPDKDEKMAITGSYPSGHASFGWAVALILAEINPQRKAEILRRGYEFGESRVICGAHWQSDVEAGRLMGASVVAVLHNTPEFTKSLSEAKKEFEELNTPTNELTP
- pNPP hydrolysis [9]: not active
- pNPP hydrolysis ([9]; listed as wildtype enzyme): lacks such activity
- Hydrolysis of pNPP [11]: does not hydrolyse
- Hydrolysis of TPP (in words) [12]: no detectable activity

B3: F53V: Shigella flexneri apyrase (SEQ ID NO: 1) with single substitution F53V (protein, listed as Shigella flexneri)
chain: B2 chain with F53V
- Hydrolysis of pNPP (in words) [13]: could hydrolyse
- Hydrolysis of TPP (in words) [12]: could hydrolyse

B4: L66V (protein, listed as Shigella flexneri)
chain: B2 chain with L66V
- Hydrolysis of pNPP (in words) [13]: could hydrolyse
- Hydrolysis of TPP (in words) [12]: could hydrolyse

B5: E77V: Shigella flexneri apyrase (SEQ ID NO: 1) with single substitution E77V (protein, listed as Shigella flexneri)
chain: B2 chain with E77V
- Hydrolysis of pNPP (in words) [13]: could hydrolyse
- Hydrolysis of TPP (in words) [12]: could hydrolyse
